Experimental data: the nanobody polyreactivity screen of Harvey et al. (2022)

Test: yeast display, Sf9 membrane polyspecificity reagent, FACS + sequencing; frameworks hold sequencing errors
In short: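 A synthetic nanobody library was expressed on Saccharomyces cerevisiae BJ5465 by galactose induction for 36–48 hours. The library was stained for 1 hour at 4 °C with 10% biotinylated, detergent-solubilized Sf9 membrane reagent and enriched with streptavidin microbeads before FACS. Low and high (top ~1%) gates were set on anti-HA fluorescence for expression and streptavidin fluorescence for reagent binding, and each polyreactivity label reflects the gate of origin.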

Sequence	polyreactivity (PSR sort gate)
QVQLVESGGGLVQAGGSLRLSCAASGFIFPWYAMGWYRQAPGKERELVAAISSSGGRTYYADSVKGRFTISRDNAKNTVYLQMNSLKPEDTAVYYCNVANGLSQVYRYNYWGQGTQVTVSS	high polyreactivity
QVQLVESGGGLVQAGGSLRLSCAASGSIFERYAMGWYRQAPGKERELVAAITWTGGSTYYADSVKGRFTISRDNAQNTVYLQMNSLKPEDTAVYYCAADYLYPLWGWYDYWGQGTQVTVSS	low polyreactivity
QVQLVESGGGLVQAGGILRLSCAASGSNFRRNVMWYRQEPGKERELVAGISWRGTSTYYADSVNGRFTISRDNAKNTVYLQMNRLKPEDSAVYYCAALPFVYHRVNEFDYWGQGTQVTVSS	high polyreactivity
QVQLVESGGGLVQAGGSLLLSCAASGRIFWHNTMGWYRQAPGKERELVAGISVSGGSTYYADSVKGRFTISRDNAMNTVYLKMNSLKPEDTAVYYCAARKVTSWKAHFRFDYWGQGTQVTVSS	low polyreactivity
QVQLVESGGGIVQAGGSLRLSCAASGRIFSGNAMGWYRQAPGKERELVATISRRGGSTYYADSVKGRFTISRDNAKNTVYLLMNSLKPEDTAVYYCAVDPYAWTKWSTYNYWGQGTQVTVSS	high polyreactivity
QVQLVESGGGLVQAGGSLRLSCAASGSIFASNAMGWYSPAPGKERELVAAINSGDSTNYADSVKGRFTISRDNAKNTVYLQMNSLKPEDTAVYYCARGLEERYDYWGQGTQVTVSS	low polyreactivity
QVQLVESGVGLVQAGGSLRLSCAATGRIFDLYAMGWYRQAPGKEREFVAAISGRGGSTYYADSVKGRFTISRDNAKNTVYLEMNSLKPEDTAVYYCNAKRSLYGRYGYWGQGSQVTVSS	high polyreactivity
QVQLVESGGGLVQAGGSLRLSCAASGSTFAGNAMGWYRQAPGKERELVAASTFSGGRTDYADSVKGRFTISRDNAKNTVYLQMNSLNPEDSAVYYCAAPADDTVHYQNYYWGQGTQVTVSS	low polyreactivity
QVQLVESGGGLVQAGGSLRLSCAASGGIFYGYAMGWYRQAPGKERELVAAISDSGGSTYYADSVKGRFTISRDNAKNTVYLQMNSLKPEDTAVYYCATDAPVGGYVSEGDYWGQGTQVTVSS	low polyreactivity
QVQLVESGGGLVQAGGSLRLSCAASGLIFWYYAMGWYRQAPGKERELVAAINKIGGSTYYADSVKGRFTISRDNAKNTVYLQMNSLKPEDTAVYYCAADAPYYPVRRYYYWGQGTQVTVSS	low polyreactivity
QVQLVESGGGLVQAGGSLRLSGAASGIIVPDYAMGWNKQAPGKERELVPDISFSAGSTYYADSVKGRFTISRDNAKNTVYLQMNSLKPDDTAVYVCAADQTSSYYDPWGDYWGQGTQVTVSS	low polyreactivity
QVQLVESGGGLVQAGGSLRLSCAASGNIFQRYAMGWYRQAPGKERDLVAAISYSGARTYYADSVKGRFTISRDNAKNTDYLQMNSLKPEDTAVYYCATYGGLTKFRLAYDYWGQGTQVTVSS	high polyreactivity
QVQLVESGGGLVQAGGSLRLSCAASGRTFKTYAMAWYRQAPGKERELVAAISRDGRTYYADSVKGRFTISRDNAKNTVYLQMNSLKPEDTAVYYCNKRSYRNGDYWGQGTQVTVSS	low polyreactivity
QVQLVESGGGLVQAGGSLRLSCAASGSTYYNAMGWYRQAPGKERELVAAIRFRSGSTYYADSVKGRFTISRDNAKNTVYLQMNSLKPEDTAVYYCNKVPYRGYRRYGYWGQGTQVTVSS	high polyreactivity
QVQLVESGGGLVQAGGSLRLSCAASGSTFESYDMGWYRQAPGKERELVAAIDWSGGITYYADSVKGRFTISRDNAKNTVYLQMNSLKPEDTAVYYCNAGPYWWYYGEDYWGQGTQVTVSS	low polyreactivity
QVQLVESGGGLVQAGGSLRLSCAASGITFSLYAMGWYRQAPGKERELVAAITRSGGSTYYADSVKGRFTISRDNAKNTVYLQMNSLKPEDTAVYYCAAQRPGVRRYYYWGQGTQVTVSS	high polyreactivity
QVQLVESGGGLVQAGGSLRLSCASSGRTFGTYAMGSYRQAPGKDSELVAAITSGTRTYYADCVKGRFTISRDNAKNTVYLQMNSQKPEDTSVYYCAAGLVYRWSSTPRRLYYYWGQGTQVTVSS	high polyreactivity
QVQLVESGGGLVQAGGSLRLSCAASGFTFFHYDMGWYRQAPGKERELVAAINTRGSRTYYADSVKGRFTISRDNAKNTVYLQMNSLKPEDTAGYYSAADSVQVYAGQYYYWGQGTQVTVSS	high polyreactivity
QVQLVESGGGLDQAGGSLRLSCAASGRIFVYNAMGWSRQAPGKARELVATITFSSSNTYYADSVKGRFTISRENAKNTVYLQMNSLKPEDTAVYYCYRDYVYARDYGNFDYWGQGTQVTVSS	low polyreactivity
QVQLVESGGGLVQAGGSLRLSCAASGIIFRGYAMGWYRQAPGKERELVAAITYSGDSTYYADSVKGRFTSSRDNAKNTVYLQMNSLKPEESAVYYCNADVVDGGLAYDYWGQGTQVSVSS	low polyreactivity
QVQLVESGGGLVQAGGSLRLSCAASGIIFNTYAMGWYRQAPGKERELVAAISSSGGRTYYADSVKGRFTISRDHAKNTVYLQMNSLTPEDTAVYNCNKVQNRGPRTNARKFDYWGQGTQVTVSS	high polyreactivity
QVQLVESGGGLVQAGGSLRLSCAASGRTFTYYAIGWYRQAPGKERELVADINRSGGDTYYADSVKGRFTISRDNAKNTVYLQMNSLKPEDTAVYYSAADDWGAQHRYDYWGQGTQVTVSS	low polyreactivity

Sequence	polyreactivity (PSR sort gate)
QVQLVESGGGLVQAGGSLRLSCAASGITFASYAMGWYRQAPGKERELVAGISGSGGRTYYADSVKGRFTISRDNAKNTVYLQMNSLKPEDTAVYYCAARQWDIRASPPRYYRYDYWGQGTQVTVSS	high polyreactivity
QVQLVVSGGGLVQPGGSLRLSCAASGRTFPYYAMGWYIQAPGKERELVARITGSGTSTNYADSVKGRFTISRDKSKNTVYLKMNSLKPEDTAVYYCAAPKYGSYYIADYEYWGQGTHVTVSS	low polyreactivity
QVQLVESGGGLVLAGGRLRLSCAASGRTFYVYTMGWYRQAPGKEWELVAGISYSGGSTYYADSVMGRFTISRDNAKNTVYLQMNSLKPEDTAVYYCNAELYCPYFDGKTRHGGYWGQGTQVTVSS	low polyreactivity
QVQLVESGGGLVQAGGSLRLSCAASGRIFTSNAMGWYRLAPGKERELVAAISSSSGSTYYADSVKGRFTISRDNAKNTVYLQMNSLKPEDTAVYYCAARTWRVSGTYKYDYWGQGTQVTVSS	low polyreactivity
QVHHVESGGGLVQAGGSLRLSCAASGLILVPNTMGWYRQAPGKERELVAAISYSGGGTYYADSVKGRFTISRDNAKNNVYLQMNSLKPEDTAVYYCAAYVKRESAPYGYWGQGTQVTVSS	low polyreactivity
QVQLVESGGGLVQAGGSLRLSCAASGLIIPFYAMGWYRQAPGKERELVAAISWSAGSTYYADSVKGRFTISRDNAKNTVYLQMNSLKPEDTAVYYCAATAYYYYDYDYWGQGTQVTVSS	low polyreactivity
QVQLLESGGGLVHSGGSLRLSCASSGRIFPSNTMGSYRPAPGKERELVADISFGGGSTSYADSVKGRFTISRDNAKNTVYLQMNRLKPEDTAVYYCNADRDDDYDYWGQGTQVTLSS	low polyreactivity
QVQLEESGGGLVQAGGSLRVSCAASGRTSEIYTLGGYRTAPGKERELVASINTNYADSGKGRFTISRDIAKNTVYLQLISLKPDDTAVYYCNADDTIEFNYWGQGTQVTVSW	low polyreactivity
QVQLEESGGGLVQAGGSLRLSCAASGPIFVGYAMGWSRQAPGKEREFLAAISRDGDNTFYADSVKGRFTISRDYAKNTVYLQMYSLKPEDTAVYYCAVDYWVWYGCAYAYDYYWGQGTQVSVSS	low polyreactivity
QVQLVESGGGLVQAGGSLRLSCAASGIIFRVYAMGWYRQAPGKERELVATITWSGGSTFYADSVKGRFTISRDNAKNTVYLQMNSLKPEDTAVYYCAARFLWSVFGRKGGYWGQGTQVTVSS	low polyreactivity
QVQLVESGGGLVQAGGSLRLSCAASGGTFAGYAMGWYRQAPGKERELVAAISRSGGSTYYADSVKGRFTISRDNAKNTVYLQMNSLKPEDTAVYYCIAASRTKFDYWGQGTQVTVSS	high polyreactivity
QVQLVESGGGLVQAGGSLRLSCAASGGIFVRNAMLWYRQAPGKERELVAAISDTGGSTYYADSVKGRFTISRDNAKNTVYLQMNSLKPEDTAVYYCAADLSPEADDYDVGGWRFRYDYWGQGTQVTVSS	low polyreactivity
QVQLVESGGGLVQAGGSLRLSCAASGFNFYRNTMGWYSQAPGKEREFVAAIRWRGGSTYYADSVKGRFTISRDNAKNTVYLQMNSLKPEDTAVYYCAADTRPGYSGFEYWGQGTQVTVSS	high polyreactivity
QVQLVESGGGLVQAGGSLRLSCAASGSTFSINAMGWYRPAPGKERELVAAITWRGTRTYYADSVKGRFTISRDNAKNTVYLQMNSLKPEDTAVYYCAATGSGQSSYYYWGQGTQVTVSS	high polyreactivity
QVQLVESGGGLVQAGGSLRLSCAASGSILWSYAMGWYRQAPGKERELVAAIRSGGSTYYADSVKGRFTISRDNAKNTVYLQMNSLKPEDTAVYYCNATYAPLFEYDYWGQGTQVTVSS	low polyreactivity
QVQLVESGGGLVQAGGSLRLSCAASGFSFATYAMGWYRQAPGKERELVAAISSTGGRTYYAVSVKGRFTISRDNAKNNVYLQMNSLKPEDTAVYYCAADWRVTYDYWGQGTQVTVSS	high polyreactivity
QVQLLESGGGLVQAGGSLRLSCASSGFIFAIYAMGWYRQAPGKERELVAAITSSSSTYADSVKGRFTISRDNAKNTVYLQMNSLKPEDTAVYYCAADTYSYRYSNDYWGQGTQVTVSS	low polyreactivity
QVQLVESGGGLVQAGGSLRLSCAASGSTLVTNPMGWYRQAPGKERELVAAITFSGGTTYYADSVKGRFTISRDTAKNTVYLHMNSLKPEDTAVYYCAAEIWLEYVGYDYWGQGTQVTVSS	high polyreactivity
QVQLVESGGGLVQARGSLRLSCAACGSTFYWYPLGWSRQAPGTERELVATLTSVGRTNYADSVKGRFTISRDNAKNSVYLQMNRLNPEDTAVYYCAASKARWPRGGSRGGMGYWGQGTQVTVSS	high polyreactivity
QVQLVESGGGLVQAGGSLRLSCAASGFTFLGNVMGWYRQAPGKERELVAAISITGSTSYADSVKGRFTISRDNAKNTVYLQMNSLKPEDTAVYYCAADGGQVDDSATRLYYWGQGTQVTVSS	high polyreactivity
QVQLVESGGGLVQAGGSLRLSCAASGFIFRAYTMGWYRQAPGKERELVAAITSGSSTNYADSVKGRFTISRDNAKNTVYLQMNSLKPEDTAVYYCNTDWVWLIIEYDYWGQGTQVTVSS	low polyreactivity
